From US20130071400A1, “LINGO binding molecules and Pharmaceutical Use Thereof” (NOVARTIS AG, priority 2006, published 2013)

Tested on: postnatal day 7 rat cerebellar granule neurons (CGN)
Test: Neurite outgrowth inhibition assay on spinal cord myelin
Format: cell-based
Settings: sub-nM concentrations in vitro
Procedure: A) P7 CGN cells are incubated for 16 hr on wells coated without spinal cord myelin (no SC, white bars) or wells coated with spinal cord myelin in the absence (SC, red bars) or presence of anti-LINGO-1 IgG4 antibodies, a control anti-lysozyme IgG4 antibody 3207 (green bars) or […] of the ROCK inhibitor Y27632 (yellow bar). […] The experiment is performed in three 96 well plates with an SC and no SC condition per plate to which the effects of the antibodies on that plate are compared and mean neurite length per neuron (μm) is calculated for 500 neurons per well in replicates of 10. The percentage inhibition (white text) is calculated as the percentile difference in mean neurite length/neuron between cells plated on wells coated with and without SC. The percentage disinhibition (black italic text) is calculated as the difference in mean neurite length between cells plated on SC in the presence and absence of anti-LINGO-1 antibody as a percentile of the difference between cells plated on wells coated with and without SC. *p<0.05, **p<0.01 (one way ANOVA, Holm-Sidak comparison to mean neurite length/neuron for cells plated on spinal cord myelin in the absence of antibody).
A) P7 CGN cells are incubated for 8 hr on wells coated without spinal cord myelin (no SC, white bars) or wells coated with spinal cord myelin in the absence (SC, red bars) or presence of anti-LINGO-1 IgG4 antibodies or a control anti-lysozyme IgG4 antibody 3207. The experiment is performed in three 96 well plates with an SC and no SC condition per plate to which the effects of the antibodies on that plate are compared and mean neurite length per neuron (μm) is calculated for 500 neurons per well in replicates of 10. The percentage inhibition (white text) and disinhibition (black italic text) is calculated as above. **p<0.01 (one way ANOVA, Holm-Sidak comparison to mean neurite length/neuron for cells plated on spinal cord myelin in the absence of antibody).
P7 CGN cells are incubated for 8 hr on wells coated without spinal cord myelin (no SC) or wells coated with spinal cord myelin in the absence (SC) or presence of the indicated concentrations of anti-LINGO-1 IgG4 antibodies 4784 or 4785, a control anti-lysozyme IgG4 antibody 3207 or 1 μM Y27632 (ROCK). The experiment is performed in three 96 well plates with an SC and no SC condition per plate to which the effects of the antibodies on that plate are compared and mean neurite length per neuron (μm) is calculated for 500 neurons per well in replicates of 10. The percentage inhibition (white text) and disinhibition (black italic text) is calculated as above. *p<0.05, **p<0.01 (one way ANOVA, Holm-Sidak comparison to mean neurite length/neuron for cells plated on spinal cord myelin in the absence of antibody). […]

B1: IgG4 4784: monoclonal human anti-LINGO-1 IgG4 antibody; VL SEQ ID NO: 4, VH SEQ ID NO: 5 (antibody, V domains shown)
VH: QVQLKESGPALVKPTQTLTLTCTFSGFSLSSSGVGVGWIRQPPGKALEWLAHIGSDDDKYYSTSLKTRLTISKDTSKNQVVLTMTNMDPVDTATYYCARNQQYGDGYPGYFDYWGQGTLVTVSS
VL: DIELTQPPSVSVAPGQTARISCSGDNIGNYYVYWYQQKPGQAPVLVIYEDTNRPSGIPERFSGSNSGNTATLTISGTQAEDEADYYCQSYDNLHEQVFGGGTKLTVLG
modifications: IgG4; 4784 VH; 4784 VL
B1 was tested, and the “attenuation of the neurite outgrowth inhibitory activity of adult rat spinal cord myelin” value was “significantly attenuate”.

B2: IgG4 4785: monoclonal human anti-LINGO-1 IgG4 antibody; VL SEQ ID NO: 6, VH SEQ ID NO: 7 (antibody, V domains shown)
VH: QVQLQQSGPGLVKPSQTLSLTCAISGDSVSDNSAAWSWIRQSPGRGLEWLGLIYLRSKWDNDYAVSVKSRITINPDTSKNQFSLQLNSVTPEDTAVYYCARTGRADEFDVWGQGTLVTVSS
VL: DIVLTQPPSVSGAPGQRVTISCSGSSSNIGNNYVSWYQQLPGTAPKLLISRNSKRPSGVPDRFSGSKSGTSASLAITGLQSEDEADYYCSTYDTFSIVFGGGTKLTVLG
modifications: IgG4; 4785 VH; 4785 VL
B2 was tested, and the “attenuation of the neurite outgrowth inhibitory activity of adult rat spinal cord myelin” value was “significantly attenuate”.
